Experimental data taken from patent US20150344570A1 (published 2015).

T1: FcγRIIb extracellular domain with C-terminal His tag (human, UniProt P31994 43-217)
T1 construct: extracellular domain; also called FcgRIIb; 2b
T1 sequence (looked up): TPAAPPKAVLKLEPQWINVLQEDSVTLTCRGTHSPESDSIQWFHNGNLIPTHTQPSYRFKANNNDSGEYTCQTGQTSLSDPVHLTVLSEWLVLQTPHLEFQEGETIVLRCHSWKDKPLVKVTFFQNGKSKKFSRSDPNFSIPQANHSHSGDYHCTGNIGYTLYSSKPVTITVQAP

B1: GpH7-B3 variant G237_02A/GpL16-k0 (antibody, human IgG1, kappa)
heavy: not shown
light: DIVMTQSPLSLPVTPGEPASISCQASESLVHSNRNTYLHWYLQKPGQSPQLLIYKVSNRFSGVPDRFSGSGSGTDFTLKISRVEAEDVGVYYCSQNTHVPPTFGQGTKVEIERTVAAPSVFIFPPSDEQLKSGTASVVCLLNNFYPREAKVQWKVDNALQSGNSQESVTEQDSKDSTYSLSSTLTLSKADYEKHKVYACEVTHQGLSSPVTKSFNRGEC
notes: also called Ho Ab G237_02A
B2: GpH7-B3 variant N325_20W/GpL16-k0 (antibody, human IgG1, kappa)
heavy: not shown
light: B1 light
notes: also called Ho Ab N325_20W
B3: GpH7-B3 variant L235_04F/GpL16-k0 (antibody, human IgG1, kappa)
heavy: not shown
light: B1 light
notes: also called Ho Ab L235_04F
B4: GpH7-B3 variant P238_03V/GpL16-k0 (antibody, human IgG1, kappa)
heavy: not shown
light: B1 light
notes: also called Ho Ab P238_03V
B5: GpH7-B3 variant A327_07I/GpL16-k0 (antibody, human IgG1, kappa)
heavy: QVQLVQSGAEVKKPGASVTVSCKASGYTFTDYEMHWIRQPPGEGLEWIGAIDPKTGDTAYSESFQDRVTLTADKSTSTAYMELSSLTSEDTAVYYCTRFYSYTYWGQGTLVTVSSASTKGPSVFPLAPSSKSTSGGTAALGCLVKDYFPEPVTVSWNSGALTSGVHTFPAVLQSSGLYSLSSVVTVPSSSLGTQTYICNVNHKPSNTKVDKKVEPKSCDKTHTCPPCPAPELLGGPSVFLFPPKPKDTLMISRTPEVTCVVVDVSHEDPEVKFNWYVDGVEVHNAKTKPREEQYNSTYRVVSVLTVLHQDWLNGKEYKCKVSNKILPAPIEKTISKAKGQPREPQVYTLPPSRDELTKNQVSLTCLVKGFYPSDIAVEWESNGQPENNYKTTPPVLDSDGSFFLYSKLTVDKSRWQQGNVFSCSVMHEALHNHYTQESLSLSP
light: B1 light
notes: also called Ho Ab A327_07I
B6: GpH7-B3 variant A330_01G/GpL16-k0 (antibody, human IgG1, kappa)
heavy: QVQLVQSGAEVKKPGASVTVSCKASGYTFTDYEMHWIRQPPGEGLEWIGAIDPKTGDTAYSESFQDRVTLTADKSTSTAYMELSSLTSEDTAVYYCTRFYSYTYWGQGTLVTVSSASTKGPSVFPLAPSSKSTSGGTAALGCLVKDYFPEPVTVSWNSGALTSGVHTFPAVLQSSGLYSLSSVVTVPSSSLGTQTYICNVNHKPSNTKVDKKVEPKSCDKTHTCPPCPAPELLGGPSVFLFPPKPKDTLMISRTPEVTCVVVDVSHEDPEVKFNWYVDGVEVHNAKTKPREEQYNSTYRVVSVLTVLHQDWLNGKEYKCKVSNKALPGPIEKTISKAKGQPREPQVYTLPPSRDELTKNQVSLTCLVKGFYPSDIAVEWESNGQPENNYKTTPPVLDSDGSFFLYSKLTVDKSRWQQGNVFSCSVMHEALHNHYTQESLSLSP
light: B1 light
notes: also called Ho Ab A330_01G
B7: GpH7-B3 variant L235_09D/GpL16-k0 (antibody, human IgG1, kappa)
heavy: not shown
light: B1 light
notes: also called Ho Ab L235_09D
B8: GpH7-B3 variant A327_18N/GpL16-k0 (antibody, human IgG1, kappa)
heavy: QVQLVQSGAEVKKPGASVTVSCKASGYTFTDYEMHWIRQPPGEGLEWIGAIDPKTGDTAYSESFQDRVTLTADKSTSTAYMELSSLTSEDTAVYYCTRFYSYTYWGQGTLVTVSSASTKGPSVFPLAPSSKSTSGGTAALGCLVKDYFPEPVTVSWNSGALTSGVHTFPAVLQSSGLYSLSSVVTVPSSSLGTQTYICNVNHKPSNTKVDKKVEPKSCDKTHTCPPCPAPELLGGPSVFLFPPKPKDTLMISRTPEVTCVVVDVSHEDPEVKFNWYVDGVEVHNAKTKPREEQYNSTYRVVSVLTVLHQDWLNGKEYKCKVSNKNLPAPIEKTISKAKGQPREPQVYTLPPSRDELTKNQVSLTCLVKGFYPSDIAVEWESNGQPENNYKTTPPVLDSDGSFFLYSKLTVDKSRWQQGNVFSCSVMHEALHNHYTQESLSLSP
light: B1 light
notes: also called Ho Ab A327_18N
B9: GpH7-B3 variant N325_04F/GpL16-k0 (antibody, human IgG1, kappa)
heavy: not shown
light: B1 light
notes: also called Ho Ab N325_04F
B10: GpH7-B3 variant L328_09D/GpL16-k0 (antibody, human IgG1, kappa)
heavy: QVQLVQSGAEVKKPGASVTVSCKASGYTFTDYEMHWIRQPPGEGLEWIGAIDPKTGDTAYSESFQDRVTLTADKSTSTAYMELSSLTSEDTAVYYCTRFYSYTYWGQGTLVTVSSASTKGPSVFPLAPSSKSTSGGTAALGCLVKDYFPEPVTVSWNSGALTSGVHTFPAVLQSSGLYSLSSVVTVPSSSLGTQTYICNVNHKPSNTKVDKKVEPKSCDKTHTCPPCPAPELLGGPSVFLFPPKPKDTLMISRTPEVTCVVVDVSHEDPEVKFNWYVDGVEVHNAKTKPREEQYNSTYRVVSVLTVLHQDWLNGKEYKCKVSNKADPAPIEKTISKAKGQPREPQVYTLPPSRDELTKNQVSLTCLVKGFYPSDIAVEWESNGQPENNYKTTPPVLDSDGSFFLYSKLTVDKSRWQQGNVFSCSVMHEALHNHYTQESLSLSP
light: B1 light
notes: also called Ho Ab L328_09D
B11: GpH7-B3 variant G237_15Y/GpL16-k0 (antibody, human IgG1, kappa)
heavy: not shown
light: B1 light
notes: also called Ho Ab G237_15Y
B12: GpH7-B3 variant N325_09D/GpL16-k0 (antibody, human IgG1, kappa)
heavy: not shown
light: B1 light
notes: also called Ho Ab N325_09D
B13: GpH7-B3 variant K326_20W/GpL16-k0 (antibody, human IgG1, kappa)
heavy: not shown
light: B1 light
notes: also called Ho Ab K326_20W
B14: GpH7-B3 variant N325_13S/GpL16-k0 (antibody, human IgG1, kappa)
heavy: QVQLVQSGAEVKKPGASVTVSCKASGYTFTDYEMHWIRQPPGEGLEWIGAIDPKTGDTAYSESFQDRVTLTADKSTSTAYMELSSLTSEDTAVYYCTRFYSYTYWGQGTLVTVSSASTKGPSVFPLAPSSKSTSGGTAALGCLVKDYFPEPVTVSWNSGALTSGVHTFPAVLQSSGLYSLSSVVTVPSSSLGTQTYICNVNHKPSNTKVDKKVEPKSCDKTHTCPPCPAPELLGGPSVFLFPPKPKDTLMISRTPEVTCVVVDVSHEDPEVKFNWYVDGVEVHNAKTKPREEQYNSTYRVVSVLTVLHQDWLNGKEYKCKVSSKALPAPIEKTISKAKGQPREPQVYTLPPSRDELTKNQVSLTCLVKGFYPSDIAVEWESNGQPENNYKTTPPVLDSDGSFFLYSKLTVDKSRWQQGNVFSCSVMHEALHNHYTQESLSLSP
light: B1 light
notes: also called Ho Ab N325_13S
B15: GpH7-B3 variant P238_15Y/GpL16-k0 (antibody, human IgG1, kappa)
heavy: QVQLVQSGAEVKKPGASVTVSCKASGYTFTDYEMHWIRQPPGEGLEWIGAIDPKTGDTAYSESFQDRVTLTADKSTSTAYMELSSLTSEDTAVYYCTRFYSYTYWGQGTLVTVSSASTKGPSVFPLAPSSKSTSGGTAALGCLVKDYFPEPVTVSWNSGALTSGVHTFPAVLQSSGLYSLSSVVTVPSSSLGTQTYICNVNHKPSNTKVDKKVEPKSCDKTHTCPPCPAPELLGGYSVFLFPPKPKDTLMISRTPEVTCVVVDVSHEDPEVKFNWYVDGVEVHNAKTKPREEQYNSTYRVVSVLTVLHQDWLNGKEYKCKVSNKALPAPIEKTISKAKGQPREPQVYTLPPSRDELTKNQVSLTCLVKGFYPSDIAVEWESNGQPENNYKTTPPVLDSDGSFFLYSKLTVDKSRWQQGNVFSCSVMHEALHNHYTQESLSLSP
light: B1 light
notes: also called Ho Ab P238_15Y
B16: GpH7-B3 variant L235_15Y/GpL16-k0 (antibody, human IgG1, kappa)
heavy: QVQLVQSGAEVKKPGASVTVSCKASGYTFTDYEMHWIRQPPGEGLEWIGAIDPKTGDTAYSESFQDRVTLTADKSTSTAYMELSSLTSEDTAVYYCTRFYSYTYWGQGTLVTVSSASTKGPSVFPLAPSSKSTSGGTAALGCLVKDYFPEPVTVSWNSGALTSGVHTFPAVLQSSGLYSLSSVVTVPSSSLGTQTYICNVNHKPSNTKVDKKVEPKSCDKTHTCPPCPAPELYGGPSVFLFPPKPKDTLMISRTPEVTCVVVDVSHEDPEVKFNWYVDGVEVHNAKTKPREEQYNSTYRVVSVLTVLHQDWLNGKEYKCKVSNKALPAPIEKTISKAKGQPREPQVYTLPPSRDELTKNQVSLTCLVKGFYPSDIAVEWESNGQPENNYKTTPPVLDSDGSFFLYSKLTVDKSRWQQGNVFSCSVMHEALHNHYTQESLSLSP
light: B1 light
notes: also called Ho Ab L235_15Y
B17: GpH7-B3 variant I332_14T/GpL16-k0 (antibody, human IgG1, kappa)
heavy: not shown
light: B1 light
notes: also called Ho Ab I332_14T
B18: GpH7-B3 variant L235_20W/GpL16-k0 (antibody, human IgG1, kappa)
heavy: not shown
light: B1 light
notes: also called Ho Ab L235_20W
B19: GpH7-B3 variant L234_20W/GpL16-k0 (antibody, human IgG1, kappa)
heavy: not shown
light: B1 light
notes: also called Ho Ab L234_20W
B20: GpH7-B3 variant K326_07I/GpL16-k0 (antibody, human IgG1, kappa)
heavy: not shown
light: B1 light
notes: also called Ho Ab K326_07I
B21: GpH7-B3 variant N325_06M/GpL16-k0 (antibody, human IgG1, kappa)
heavy: not shown
light: B1 light
notes: also called Ho Ab N325_06M
B22: GpH7-B3 variant P238_09D/GpL16-k0 (antibody, human IgG1, kappa)
heavy: not shown
light: B1 light
notes: also called Ho Ab P238_09D
B23: GpH7-B3 variant H268_05P/GpL16-k0 (antibody, human IgG1, kappa)
heavy: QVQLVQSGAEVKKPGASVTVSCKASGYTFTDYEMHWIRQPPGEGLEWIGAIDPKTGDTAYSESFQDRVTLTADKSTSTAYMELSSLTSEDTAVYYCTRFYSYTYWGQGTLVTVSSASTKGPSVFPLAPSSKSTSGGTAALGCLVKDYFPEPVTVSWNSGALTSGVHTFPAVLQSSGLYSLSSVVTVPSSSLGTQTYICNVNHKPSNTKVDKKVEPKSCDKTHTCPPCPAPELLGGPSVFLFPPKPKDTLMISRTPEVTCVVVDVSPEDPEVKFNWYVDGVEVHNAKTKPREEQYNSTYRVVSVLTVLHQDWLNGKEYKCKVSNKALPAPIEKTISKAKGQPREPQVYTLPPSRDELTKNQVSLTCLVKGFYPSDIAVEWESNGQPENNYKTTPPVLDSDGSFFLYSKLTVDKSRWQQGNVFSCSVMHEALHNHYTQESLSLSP
light: B1 light
notes: also called Ho Ab H268_05P
B24: GpH7-B3 variant L328_10E/GpL16-k0 (antibody, human IgG1, kappa)
heavy: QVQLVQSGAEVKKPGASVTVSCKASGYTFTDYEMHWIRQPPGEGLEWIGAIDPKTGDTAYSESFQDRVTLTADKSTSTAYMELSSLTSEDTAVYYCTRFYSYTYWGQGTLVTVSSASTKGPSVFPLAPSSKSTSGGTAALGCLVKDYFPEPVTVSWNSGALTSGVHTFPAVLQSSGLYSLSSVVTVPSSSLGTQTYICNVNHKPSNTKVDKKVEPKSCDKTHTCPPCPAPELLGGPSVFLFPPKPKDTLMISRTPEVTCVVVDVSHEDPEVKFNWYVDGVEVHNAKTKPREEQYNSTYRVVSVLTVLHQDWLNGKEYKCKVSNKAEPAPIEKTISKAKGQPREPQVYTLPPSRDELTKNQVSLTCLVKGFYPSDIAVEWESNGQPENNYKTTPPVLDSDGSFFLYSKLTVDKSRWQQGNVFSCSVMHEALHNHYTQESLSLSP
light: B1 light
notes: also called Ho Ab L328_10E
B25: GpH7-B3 variant P238_06M/GpL16-k0 (antibody, human IgG1, kappa)
heavy: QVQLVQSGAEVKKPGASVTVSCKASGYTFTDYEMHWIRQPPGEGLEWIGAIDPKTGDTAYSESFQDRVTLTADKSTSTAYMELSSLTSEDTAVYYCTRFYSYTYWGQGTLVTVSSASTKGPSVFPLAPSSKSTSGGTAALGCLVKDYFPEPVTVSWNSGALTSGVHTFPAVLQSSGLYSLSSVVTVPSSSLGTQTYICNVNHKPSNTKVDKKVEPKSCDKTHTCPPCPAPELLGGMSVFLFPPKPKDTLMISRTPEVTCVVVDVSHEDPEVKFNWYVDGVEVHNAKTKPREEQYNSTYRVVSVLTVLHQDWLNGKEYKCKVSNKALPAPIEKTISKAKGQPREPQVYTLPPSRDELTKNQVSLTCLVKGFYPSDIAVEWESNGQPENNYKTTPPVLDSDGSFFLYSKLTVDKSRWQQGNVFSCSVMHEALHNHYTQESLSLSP
light: B1 light
notes: also called Ho Ab P238_06M
B26: GpH7-B3 variant N325_03V/GpL16-k0 (antibody, human IgG1, kappa)
heavy: not shown
light: B1 light
notes: also called Ho Ab N325_03V
B27: GpH7-B3 variant N325_07I/GpL16-k0 (antibody, human IgG1, kappa)
heavy: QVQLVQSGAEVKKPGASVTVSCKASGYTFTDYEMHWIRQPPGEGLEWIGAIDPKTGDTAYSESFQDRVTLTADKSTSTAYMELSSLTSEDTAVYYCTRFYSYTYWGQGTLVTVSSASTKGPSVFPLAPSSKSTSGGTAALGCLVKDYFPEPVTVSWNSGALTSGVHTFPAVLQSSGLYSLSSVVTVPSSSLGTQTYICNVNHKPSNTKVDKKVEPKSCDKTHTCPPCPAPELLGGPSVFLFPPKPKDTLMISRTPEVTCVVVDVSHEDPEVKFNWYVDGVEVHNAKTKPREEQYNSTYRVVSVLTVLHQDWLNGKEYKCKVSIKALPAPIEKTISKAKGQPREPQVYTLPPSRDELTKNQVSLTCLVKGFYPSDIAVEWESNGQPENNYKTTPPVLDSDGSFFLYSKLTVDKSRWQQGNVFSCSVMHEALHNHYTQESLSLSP
light: B1 light
notes: also called Ho Ab N325_07I

biological target: T1, FcγRIIb extracellular domain with …; experiment: SPR (Biacore), relative binding
Procedure: Analysis of interaction between objective antibody and the FcγR was carried out using Biacore T100 (GE Healthcare). HBS-EP+ (GE Healthcare) was used as the running buffer, and the measurement temperature was set to 25° C. Chips produced by immobilizing the antigen peptide by the amine coupling method to a Series S Sencor Chip CM5 (GE Healthcare), or alternatively, chips produced by allowing preliminarily biotinylated antigen peptides to interact with and immobilize onto a Series S Sensor Chip SA (certified) (GE Healthcare) were used. Antibodies of interest were captured onto an antigen peptide-immobilized chip, and allowed to interact to each FcγR diluted with running buffer. To regenerate and repeatedly use the chip, the antibodies captured on the chip were washed off by reacting 10 mM glycine-HCl, pH 1.5.

Row | Ho/Con_2b | Binder
1 | 47.8 % of HoCon Ab GpH7-B3/GpL16-k0 | B1
2 | 44 % of HoCon Ab GpH7-B3/GpL16-k0 | B2
3 | 111 % of HoCon Ab GpH7-B3/GpL16-k0 | B3
4 | 96.6 % of HoCon Ab GpH7-B3/GpL16-k0 | B4
5 | 37.6 % of HoCon Ab GpH7-B3/GpL16-k0 | B5
6 | 102 % of HoCon Ab GpH7-B3/GpL16-k0 | B6
7 | 78.7 % of HoCon Ab GpH7-B3/GpL16-k0 | B7
8 | 101 % of HoCon Ab GpH7-B3/GpL16-k0 | B8
9 | 65.7 % of HoCon Ab GpH7-B3/GpL16-k0 | B9
10 | 159 % of HoCon Ab GpH7-B3/GpL16-k0 | B10
11 | 83.1 % of HoCon Ab GpH7-B3/GpL16-k0 | B11
12 | 77 % of HoCon Ab GpH7-B3/GpL16-k0 | B12
13 | 132 % of HoCon Ab GpH7-B3/GpL16-k0 | B13
14 | 159 % of HoCon Ab GpH7-B3/GpL16-k0 | B14
15 | 114 % of HoCon Ab GpH7-B3/GpL16-k0 | B15
16 | 127 % of HoCon Ab GpH7-B3/GpL16-k0 | B16
17 | 106 % of HoCon Ab GpH7-B3/GpL16-k0 | B17
18 | 116 % of HoCon Ab GpH7-B3/GpL16-k0 | B18
19 | 80.6 % of HoCon Ab GpH7-B3/GpL16-k0 | B19
20 | 170 % of HoCon Ab GpH7-B3/GpL16-k0 | B20
21 | 159 % of HoCon Ab GpH7-B3/GpL16-k0 | B21
22 | 207 % of HoCon Ab GpH7-B3/GpL16-k0 | B22
23 | 109 % of HoCon Ab GpH7-B3/GpL16-k0 | B23
24 | 146 % of HoCon Ab GpH7-B3/GpL16-k0 | B24
25 | 97.1 % of HoCon Ab GpH7-B3/GpL16-k0 | B25
26 | 31.8 % of HoCon Ab GpH7-B3/GpL16-k0 | B26
27 | 88.2 % of HoCon Ab GpH7-B3/GpL16-k0 | B27
